# B1: soluble apical domain (sAD) of Neotoma albigula (White-throated woodrat) TfR1 (receptor)
# chain: GSKIQVKCSAPNSVTITNASGGLYLVEYPEGYVAYSKATEVTGKLVHANFGTKKDFEDLDYAVNGSIVIVRAGKITIAEKVANAQSFNAIGVLIYKDRTKYPISRADEPLQGHSGLPSIPVQTISREAAEKLFQNMERDCPRSWNTDSSCKLELLQNRNVKLTVNNCLKE
# Assays:
# [1] = target: native spike complex (glycoprotein complex, GPC) of Junin virus (JUNV) (Junin virus (JUNV)); test: cell-based or functional assay
# [2] = target: native spike complex (glycoprotein complex, GPC) of Sabia virus (SABV) (Sabia virus (SABV)); test: cell-based or functional assay
# [3] = target: T1, native spike complex (glycoprotein complex, GPC) of Machupo virus (MACV) (Machupo virus (MACV), UniProt Q6IUF7 2-496); test: cell-based or functional assay
# T1 sequence: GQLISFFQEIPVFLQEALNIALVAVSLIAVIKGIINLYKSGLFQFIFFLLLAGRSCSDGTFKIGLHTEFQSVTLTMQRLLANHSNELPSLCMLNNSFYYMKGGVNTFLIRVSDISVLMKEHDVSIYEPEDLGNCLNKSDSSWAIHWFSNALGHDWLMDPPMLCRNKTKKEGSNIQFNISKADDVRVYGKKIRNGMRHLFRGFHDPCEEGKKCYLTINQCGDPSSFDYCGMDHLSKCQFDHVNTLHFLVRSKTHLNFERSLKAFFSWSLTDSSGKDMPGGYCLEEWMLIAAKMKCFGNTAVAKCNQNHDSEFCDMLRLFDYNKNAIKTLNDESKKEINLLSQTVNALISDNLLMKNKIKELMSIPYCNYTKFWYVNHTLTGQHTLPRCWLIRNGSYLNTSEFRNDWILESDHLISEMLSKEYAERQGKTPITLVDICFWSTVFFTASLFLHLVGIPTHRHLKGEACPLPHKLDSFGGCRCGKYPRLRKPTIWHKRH
# [4] = target: GP1JUNV-Fc (GP1 domain of Junin virus fused at its C' terminus to an antibody Fc portion) (Junin virus (JUNV)); test: SPR (Biacore T200), single cycle kinetics; […]; 1:1 model
# [5] = target: GP1MACV-Fc (GP1 domain of Machupo virus fused at its C' terminus to an antibody Fc portion) (Machupo virus (MACV)) (UniProt Q6IUF7); test: as above
# [6] = target: GP1SBOV-Fc (GP1 domain of Sabia virus fused at its C' terminus to an antibody Fc portion) (Sabia virus (SABV)); test: SPR (Biacore T200), single-cycle kinetics; […]; 1:1 model fit
Molecule,"IC50 values (µg/ml), neutralization of pseudotyped virus [1] [µg/mL]","IC50 values (µg/ml), neutralization of pseudotyped virus [2] [µg/mL]","pseudovirus neutralisation, IC50 (read off the curve) [3] [nM]",Kd [4] [nM],Kd [5] [nM],Kd [6] [nM]
Arenacept (sAD fused at its C'-terminus to an Fc portion of IgG1) (Fc fusion),2.4,3.5,–,–,–,–
B1,–,–,~10,1000,4,63

# Reference: patent US20200392203A1 (YEDA RESEARCH AND DEVELOPMENT, published 2020)
